The results in this text go back to US20230279138A1 (CHIA TAI TIANQING PHARMACEUTICAL GROUP, published 2023).

Residue numbers refer to the chain shown, from its start. In names and notes the source's numbering stands.

To fix the notation:
T1: CD20 on Raji cells (CD20+/CD3- cells) (human, UniProt P11836 1-297)
T1 construct: whole, on cells; Raji, Ramos and NAMALWA in the killing assays; also called Ramos; NAMALWA
T1 sequence (looked up): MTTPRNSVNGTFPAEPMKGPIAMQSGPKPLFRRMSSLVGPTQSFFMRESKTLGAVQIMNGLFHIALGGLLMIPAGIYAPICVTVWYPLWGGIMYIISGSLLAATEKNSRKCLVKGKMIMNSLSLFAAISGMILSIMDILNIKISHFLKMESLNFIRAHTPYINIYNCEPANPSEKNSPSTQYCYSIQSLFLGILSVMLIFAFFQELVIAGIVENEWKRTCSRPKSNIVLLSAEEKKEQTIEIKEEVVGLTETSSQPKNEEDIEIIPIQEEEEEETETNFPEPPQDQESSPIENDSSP

B1: W3278-T2U3.E17R-1.uIgG4.SP (bispecific antibody)
heavy 1: QVQLVQSGAEVKKPGSSVKVSCKASGYSFTTYYIHWVRQAPGQGLEWMGWIFPGNDNIKYSEKFKGRVTITADKSTSTAYMELSSLRSEDTAVYYCAIDSVSIYYFDYWGQGTLVTVSSASTKGPSVFPLAPCSRSTSESTAALGCLVKDYFPEPVTVSWNSGALTSGVHTFPAVLQSSGLYSLSSVVTVPSSSLGTKTYTCNVDHKPSNTKVDKRVESKYGPPCPPCPAPEFLGGPSVFLFPPKPKDTLMISRTPEVTCVVVDVSQEDPEVQFNWYVDGVEVHNAKTKPREEQFNSTYRVVSVLTVLHQDWLNGKEYKCKVSNKGLPSSIEKTISKAKGQPREPQVYTLPPCQEEMTKNQVSLWCLVKGFYPSDIAVEWESNGQPENNYKTTPPVLDSDGSFFLYSRLTVDKSRWQEGNVFSCSVMHEALHNHYTQKSLSLSLG
heavy 2: EVQLVESGGGLVQPGRSLRLSCAASGFTFNDYAMHWVRQAPGKGLEWVSTISWNSGSIGYADSVKGRFTISRDNAKKSLYLQMNSLRAEDTALYYCAKDIQYGNYYYGMDVWGQGTTVTVLEDLKNVFPPEVAVFEPSEAEISHTQKATLVCLATGFYPDHVELSWWVNGKEVHSGVCTDPQPLKEQPALQDSRYALSSRLRVSATFWQNPRNHFRCQVQFYGLSENDEWTQDRAKPVTQIVSAEAWGRYGPPCPPCPAPEFLGGPSVFLFPPKPKDTLMISRTPEVTCVVVDVSQEDPEVQFNWYVDGVEVHNAKTKPREEQFNSTYRVVSVLTVLHQDWLNGKEYKCKVSNKGLPSSIEKTISKAKGQPREPQVCTLPPSQEEMTKNQVSLSCAVKGFYPSDIAVEWESNGQPENNYKTTPPVLDSDGSFFLVSRLTVDKSRWQEGNVFSCSVMHEALHNHYTQKSLSLSLG
light 1: not shown
light 2: EIVLTQSPATLSLSPGERATLSCRASQSVSSYLAWYQQKPGQAPRLLIYDASNRATGIPARFSGSGSGTDFTLTISSLEPEDFAVYYCQQRSNWPITFGQGTRLEIKPDIQNPDPAVYQLRDSKSSDKSVCLFTDFDSQTQVSQSKDSDVYITDKCVLDMRSMDFKSNSAVAWSQKSDFACANAFQNSIIPEDTFFPSPESS
notes: Human IgG4 with S228P, knobs-into-holes; WuXiBody format, in which one arm carries TCR constant domains; also called W3278 BsAb; WBP3278 BsAb
B2: Anti-CD20. IgG4 (U2) (antibody, V domains shown)
VH: QVQLQQPGAELVKPGASVKMSCKASGYTFTSYNMHWVKQTPGRGLEWIGAIYPGNGDTSYNQKFKGKATLTADKSSSTAYMQLSSLTSEDSAVYYCARSTYYGGDWYFNVWGAGTTVTVSA
VL: QIVLSQSPAILSASPGEKVTMTCRASSSVSYIHWFQQKPGSSPKPWIYATSNLASGVPVRFSGSGSGTSYSLTISRVEAEDAATYYCQQWTSNPPTFGGGTKLEIK
notes: Tested as IgG4; also called parental anti-CD20 antibody U2
B3: W3278-U3T2.F18R-1.uIgG4.SP (bispecific antibody)
heavy 1: EVQLVESGGGLVQPGRSLRLSCAASGFTFNDYAMHWVRQAPGKGLEWVSTISWNSGSIGYADSVKGRFTISRDNAKKSLYLQMNSLRAEDTALYYCAKDIQYGNYYYGMDVWGQGTTVTVSSASTKGPSVFPLAPCSRSTSESTAALGCLVKDYFPEPVTVSWNSGALTSGVHTFPAVLQSSGLYSLSSVVTVPSSSLGTKTYTCNVDHKPSNTKVDKRVGGGGSGGGGSQVQLVQSGAEVKKPGSSVKVSCKASGYSFTTYYIHWVRQAPGQGLEWMGWIFPGNDNIKYSEKFKGRVTITADKSTSTAYMELSSLRSEDTAVYYCAIDSVSIYYFDYWGQGTLVTVLEDLKNVFPPEVAVFEPSEAEISHTQKATLVCLATGFYPDHVELSWWVNGKEVHSGVCTDPQPLKEQPALQDSRYALSSRLRVSATFWQNPRNHFRCQVQFYGLSENDEWTQDRAKPVTQIVSAEAWGRYGPPCPPCPAPEFLGGPSVFLFPPKPKDTLMISRTPEVTCVVVDVSQEDPEVQFNWYVDGVEVHNAKTKPREEQFNSTYRVVSVLTVLHQDWLNGKEYKCKVSNKGLPSSIEKTISKAKGQPREPQVYTLPPCQEEMTKNQVSLWCLVKGFYPSDIAVEWESNGQPENNYKTTPPVLDSDGSFFLYSRLTVDKSRWQEGNVFSCSVMHEALHNHYTQKSLSLSLG
heavy 2: EVQLVESGGGLVQPGRSLRLSCAASGFTFNDYAMHWVRQAPGKGLEWVSTISWNSGSIGYADSVKGRFTISRDNAKKSLYLQMNSLRAEDTALYYCAKDIQYGNYYYGMDVWGQGTTVTVSSASTKGPSVFPLAPCSRSTSESTAALGCLVKDYFPEPVTVSWNSGALTSGVHTFPAVLQSSGLYSLSSVVTVPSSSLGTKTYTCNVDHKPSNTKVDKRVESKYGPPCPPCPAPEFLGGPSVFLFPPKPKDTLMISRTPEVTCVVVDVSQEDPEVQFNWYVDGVEVHNAKTKPREEQFNSTYRVVSVLTVLHQDWLNGKEYKCKVSNKGLPSSIEKTISKAKGQPREPQVCTLPPSQEEMTKNQVSLSCAVKGFYPSDIAVEWESNGQPENNYKTTPPVLDSDGSFFLVSRLTVDKSRWQEGNVFSCSVMHEALHNHYTQKSLSLSLG
light 1: not shown
light 2: DIVMTQSPDSLAVSLGERATINCKSSQSLLNSRTRKNYLAWYQQKPGQPPKLLIYWASTRKSGVPDRFSGSGSGTDFTLTISSLQAEDVAVYYCTQSFILRTFGGGTKVEIKPDIQNPDPAVYQLRDSKSSDKSVCLFTDFDSQTQVSQSKDSDVYITDKCVLDMRSMDFKSNSAVAWSQKSDFACANAFQNSIIPEDTFFPSPESS
notes: Human IgG4 S228P, knobs-into-holes; also called W3278 BsAb; WBP3278 BsAb
B4: W3278-T3U2.F17R-1.uIgG4.SP (bispecific antibody)
heavy 1: QVQLVQSGAEVKKPGSSVKVSCKASGFAFTDYYIHWVRQAPGQGLEWMGWISPGNVNTKYNENFKGRVTITADKSTSTAYMELSSLRSEDTAVYYCARDGYSLYYFDYWGQGTLVTVLEDLKNVFPPEVAVFEPSEAEISHTQKATLVCLATGFYPDHVELSWWVNGKEVHSGVCTDPQPLKEQPALQDSRYALSSRLRVSATFWQNPRNHFRCQVQFYGLSENDEWTQDRAKPVTQIVSAEAWGRGGGGSGGGGSQVQLQQPGAELVKPGASVKMSCKASGYTFTSYNMHWVKQTPGRGLEWIGAIYPGNGDTSYNQKFKGKATLTADKSSSTAYMQLSSLTSEDSAVYYCARSTYYGGDWYFNVWGAGTTVTVSAASTKGPSVFPLAPCSRSTSESTAALGCLVKDYFPEPVTVSWNSGALTSGVHTFPAVLQSSGLYSLSSVVTVPSSSLGTKTYTCNVDHKPSNTKVDKRVESKYGPPCPPCPAPEFLGGPSVFLFPPKPKDTLMISRTPEVTCVVVDVSQEDPEVQFNWYVDGVEVHNAKTKPREEQFNSTYRVVSVLTVLHQDWLNGKEYKCKVSNKGLPSSIEKTISKAKGQPREPQVYTLPPCQEEMTKNQVSLWCLVKGFYPSDIAVEWESNGQPENNYKTTPPVLDSDGSFFLYSRLTVDKSRWQEGNVFSCSVMHEALHNHYTQKSLSLSLG
heavy 2: QVQLQQPGAELVKPGASVKMSCKASGYTFTSYNMHWVKQTPGRGLEWIGAIYPGNGDTSYNQKFKGKATLTADKSSSTAYMQLSSLTSEDSAVYYCARSTYYGGDWYFNVWGAGTTVTVSAASTKGPSVFPLAPCSRSTSESTAALGCLVKDYFPEPVTVSWNSGALTSGVHTFPAVLQSSGLYSLSSVVTVPSSSLGTKTYTCNVDHKPSNTKVDKRVESKYGPPCPPCPAPEFLGGPSVFLFPPKPKDTLMISRTPEVTCVVVDVSQEDPEVQFNWYVDGVEVHNAKTKPREEQFNSTYRVVSVLTVLHQDWLNGKEYKCKVSNKGLPSSIEKTISKAKGQPREPQVCTLPPSQEEMTKNQVSLSCAVKGFYPSDIAVEWESNGQPENNYKTTPPVLDSDGSFFLVSRLTVDKSRWQEGNVFSCSVMHEALHNHYTQKSLSLSLG
light 1: B3 light 2 with K61Q, F98H, I99T
light 2: QIVLSQSPAILSASPGEKVTMTCRASSSVSYIHWFQQKPGSSPKPWIYATSNLASGVPVRFSGSGSGTSYSLTISRVEAEDAATYYCQQWTSNPPTFGGGTKLEIKRTVAAPSVFIFPPSDEQLKSGTASVVCLLNNFYPREAKVQWKVDNALQSGNSQESVTEQDSKDSTYSLSSTLTLSKADYEKHKVYACEVTHQGLSSPVTKSFNRGEC
notes: also called W3278 BsAb; WBP3278 BsAb
B5: Anti-CD3 Fab (T2) (Fab, V domains shown)
VH: QVQLVQSGAEVKKPGSSVKVSCKASGYSFTTYYIHWVRQAPGQGLEWMGWIFPGNDNIKYSEKFKGRVTITADKSTSTAYMELSSLRSEDTAVYYCAIDSVSIYYFDYWGQGTLVTVSS
VL: DIVMTQSPDSLAVSLGERATINCKSSQSLLNSRTRKNYLAWYQQKPGQPPKLLIYWASTRKSGVPDRFSGSGSGTDFTLTISSLQAEDVAVYYCTQSFILRTFGGGTKVEIK
notes: Parental antibody tested as a Fab; The variable domains are tied to it through the clone naming: T2 is the anti-CD3 portion of W3278-T2U3 and W3278-U3T2; also called parental anti-CD3 antibody T2
B6: Anti-CD3 Fab (T3) (Fab, V domains shown)
VH: QVQLVQSGAEVKKPGSSVKVSCKASGFAFTDYYIHWVRQAPGQGLEWMGWISPGNVNTKYNENFKGRVTITADKSTSTAYMELSSLRSEDTAVYYCARDGYSLYYFDYWGQGTLVTVSS
VL: B5 VL with K61Q, F98H, I99T
notes: Parental antibody tested as a Fab; The variable domains are tied to it through the clone naming: T3 is the anti-CD3 portion of W3278-T3U2 and W3278-U2T3; also called parental anti-CD3 antibody T3

T2 sequence (P07766 23-207, chain 1 of 3): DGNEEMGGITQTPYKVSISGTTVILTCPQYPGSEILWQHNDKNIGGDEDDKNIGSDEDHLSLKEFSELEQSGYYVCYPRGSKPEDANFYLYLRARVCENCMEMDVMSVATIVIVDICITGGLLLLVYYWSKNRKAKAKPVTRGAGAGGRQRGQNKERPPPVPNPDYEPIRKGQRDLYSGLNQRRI
T2 sequence (P04234 22-171, chain 2 of 3): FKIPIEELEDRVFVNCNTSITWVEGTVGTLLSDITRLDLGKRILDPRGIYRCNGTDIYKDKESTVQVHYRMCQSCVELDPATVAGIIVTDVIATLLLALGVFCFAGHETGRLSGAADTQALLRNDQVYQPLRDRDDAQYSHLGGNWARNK
T2 sequence (P09693 23-182, chain 3 of 3): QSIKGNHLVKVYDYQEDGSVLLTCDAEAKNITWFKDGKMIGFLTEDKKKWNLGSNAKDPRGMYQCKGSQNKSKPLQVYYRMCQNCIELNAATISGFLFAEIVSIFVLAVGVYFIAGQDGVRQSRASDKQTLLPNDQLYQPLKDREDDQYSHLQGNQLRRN

In one experiment the target is T1, CD20 on Raji cells (CD20+/CD3- cells). In words: flow cytometry on Raji cells (CD20+/CD3-). As to the method:
(§1) After incubation, the cells were washed twice with cold 1% BSA/1×PBS. […] After being washed twice, the geometric mean fluorescence (MFI) of the stained cells was measured using a FACS Canto II […] (BD Biosciences). Wells containing no antibody or containing only fluorescent secondary antibody were used to establish background fluorescence. The EC50 values for cell binding were determined using GraphPad Prism 5 software (GraphPad Software, La Jolla, Calif.); each value was calculated by four-parameter non-linear regression analysis.
For orientation: In flow cytometry, cells or beads pass a laser one at a time.
The EC50 is the concentration giving half of the maximal effect. A low value points to higher potency in that assay. In the case of B1, the EC50 came out at 13.2 nM and the “TOP MFI” value worked out at 68500 MFI.
As for B2, the EC50 turned out to be 11.4 nM and the “TOP MFI” value is 53500 MFI.
The matching figures for B3: 1.3 nM and 55400 MFI.
The matching figures for B4: 85.3 nM and 64900 MFI.

The next experiment has as its target T2, CD3 on Jurkat cells (CD3+/CD20- cells) (human, UniProt P07766 23-207; P04234 22-171; P09693 23-182).
T2 construct: whole, on cells; also called Jurkat 2B8
In words: flow cytometry on Jurkat 2B8 cells (CD3+/CD20-). As to the method:
as §1
For B5, the EC50 was found to be 33 nM and the “TOP MFI” value was 3210 MFI.
The matching figures for B6: 43.7 nM and 3800 MFI.
The matching figures for B1: 129 nM and 3880 MFI.
With B3, the EC50 amounted to 26.6 nM and the “TOP MFI” value came to 536 MFI.
Consider B4, for which the EC50 was found to be 17.3 nM and the “TOP MFI” value was 7360 MFI.
